Data as given in PMC4254523.
Each block holds one molecule with its values, some of them ahead of it.

Legend:
Experiment in all cases: SPR
[1] = molecular target: human FcγRII (CD32), CD32A-131H (human) (UniProt P12318)
[2] = molecular target: human FcγRII (CD32), CD32B (human) (UniProt P31994)
[3] = molecular target: human FcγRII (CD32), CD32A-131R (human)

UniProt P12318, sequence (P12318 34-317): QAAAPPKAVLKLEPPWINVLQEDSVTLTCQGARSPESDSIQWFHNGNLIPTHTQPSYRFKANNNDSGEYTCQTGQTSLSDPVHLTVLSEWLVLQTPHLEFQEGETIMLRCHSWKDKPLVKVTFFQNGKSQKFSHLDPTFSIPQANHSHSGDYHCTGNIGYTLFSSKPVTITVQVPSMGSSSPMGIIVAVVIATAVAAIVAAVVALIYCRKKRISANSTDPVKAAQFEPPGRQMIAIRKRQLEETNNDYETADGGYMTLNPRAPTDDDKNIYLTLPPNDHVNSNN
UniProt P31994, sequence (P31994 43-310): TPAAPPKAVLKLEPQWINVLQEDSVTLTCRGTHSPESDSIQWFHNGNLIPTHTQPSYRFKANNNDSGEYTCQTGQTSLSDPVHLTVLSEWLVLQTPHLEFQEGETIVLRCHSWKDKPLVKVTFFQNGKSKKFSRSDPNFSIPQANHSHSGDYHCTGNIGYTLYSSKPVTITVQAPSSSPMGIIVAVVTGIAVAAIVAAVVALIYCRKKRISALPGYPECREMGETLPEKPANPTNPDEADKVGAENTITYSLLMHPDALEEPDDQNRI

Ka [1]: 631000 M⁻¹ | koff [1]: 0.427 s⁻¹ | Ka [2]: 83700 M⁻¹ | koff [2]: 0.341 s⁻¹ | kon [2]: 28600 M⁻¹ s⁻¹
Molecule: hu3F8 (IgG1) (antibody)

Ka [1]: 17300 M⁻¹ | koff [1]: 1.1 s⁻¹ | Ka [2]: 5660 M⁻¹ | koff [2]: 2.03 s⁻¹ | kon [2]: 11500 M⁻¹ s⁻¹
Molecule: mouse 3F8 (IgG3) (antibody)

Ka [3]: 368000 M⁻¹ | koff [3]: 0.406 s⁻¹ | kon [3]: 149000 M⁻¹ s⁻¹
B1: hu3F8 (IgG1) (antibody, V domains shown)
VH: QVQLVESGPGVVQPGRSLRISCAVSGFSVTNYGVHWVRQPPGKGLEWLGVIWAGGITNYNSAFMSRLTISKDNSKNTVYLQMNSLRAEDTAMYYCASRGGHYGYALDYWGQGTLVTVSS
VL: EIVMTQTPATLSVSAGERVTITCKASQSVSNDVTWYQQKPGQAPRLLIYSASNRYSGVPARFSGSGYGTEFTFTISSVQSEDFAVYFCQQDYSSFGQGTKLEIK

Ka [3]: 71500 M⁻¹ | koff [3]: 0.363 s⁻¹ | kon [3]: 25900 M⁻¹ s⁻¹
B2: mouse 3F8 (IgG3) (antibody, V domains shown)
VH: QVQLKESGPGLVAPSQSLSITCTVSGFSVTNYGVHWVRQPPGKGLEWLGVIWAGGITNYNSAFMSRLSISKDNSKSQVFLKMNSLQIDDTAMYYCASRGGHYGYALDYWGQGTSVTVSS
VL: SIVMTQTPKFLLVSAGDRVTITCKASQSVSNDVTWYQQKAGQSPKLLIYSASNRYSGVPDRFTGSGYGTAFTFTISTVQAEDLAVYFCQQDYSSFGGGTKLEIK
